According to patent US20160346368A1:

What was measured:
[1] = target: PVR-CD4TM-GFP (human); experiment: flow cytometry; HEK-293T cells transfected with PVR-CD4TM-GFP; CD226-Fc at 10 ug/ml; PE anti-human Fc
[2] = target: PVR Q82K variant-CD4TM-GFP (human); experiment: flow cytometry; HEK-293T cells transfected with PVR Q82K variant-CD4TM-GFP; CD226-Fc at 1 ug/ml (heading of FIG. 8A); PE anti-human Fc
[3] = target: PVR S72N variant-CD4TM-GFP (human); experiment: flow cytometry; HEK-293T cells transfected with PVR S72N variant-CD4TM-GFP; CD226-Fc at 10 ug/ml; PE anti-human Fc
[4] = target: PVR-CD4TM-GFP (human); experiment: flow cytometry; HEK-293T cells transfected with PVR-CD4TM-GFP; CD226-Fc at 1 ug/ml; PE anti-human Fc
[5] = target: PVR Q82K+S72N double variant-CD4TM-GFP (human); experiment: flow cytometry; HEK-293T cells transfected with PVR Q82K+S72N double variant-CD4TM-GFP; CD226-Fc at 10 ug/ml (heading of FIG. 8A); PE anti-human Fc
[6] = target: PVR S72N variant-CD4TM-GFP (human); experiment: flow cytometry; HEK-293T cells transfected with PVR S72N variant-CD4TM-GFP; CD226-Fc at 1 ug/ml; PE anti-human Fc
[7] = target: PVR Q82K+S72N double variant-CD4TM-GFP (human); experiment: flow cytometry; HEK-293T cells transfected with PVR Q82K+S72N double variant-CD4TM-GFP; CD226-Fc at 1 ug/ml (heading of FIG. 8A); PE anti-human Fc
[8] = target: PVR Q82K variant-CD4TM-GFP (human); experiment: flow cytometry; HEK-293T cells transfected with PVR Q82K variant-CD4TM-GFP; CD226-Fc at 10 ug/ml (heading of FIG. 8A); PE anti-human Fc
[9] = target: PVR Q82K+S72N double variant-CD4TM-GFP (human); experiment: flow cytometry; HEK-293T cells transfected with PVR Q82K+S72N double variant-CD4TM-GFP; PE anti-human Fc
[10] = target: PVR Q82K variant-CD4TM-GFP (human); experiment: flow cytometry; HEK-293T cells transfected with PVR Q82K variant-CD4TM-GFP; PE anti-human Fc
[11] = target: PVR-CD4TM-GFP (human); experiment: flow cytometry; HEK-293T cells transfected with PVR-CD4TM-GFP; Fc fusion detected with PE anti-human Fc; PE against FITC (GFP)
[12] = target: PVR S72N variant-CD4TM-GFP (human); experiment: flow cytometry; HEK-293T cells transfected with PVR S72N variant-CD4TM-GFP; PE anti-human Fc

Sequence of CD226-Fc (Q15762 19-254): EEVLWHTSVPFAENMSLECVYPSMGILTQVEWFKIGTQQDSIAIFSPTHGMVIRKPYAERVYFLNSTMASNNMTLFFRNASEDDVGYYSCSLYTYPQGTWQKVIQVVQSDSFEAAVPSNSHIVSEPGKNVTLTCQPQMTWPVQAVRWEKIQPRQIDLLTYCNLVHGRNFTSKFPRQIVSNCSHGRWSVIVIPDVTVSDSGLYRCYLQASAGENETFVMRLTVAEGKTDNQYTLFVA

In the case of “CD226-Fc (from UniProt Q15762 19-254) (Fc fusion)”, the MFI [1] is reported as 409, the MFI [2] is reported as 247 and the MFI [3] is reported as 104. For the same substance, the MFI [4] was 205, the MFI [5] was 93.3 and the MFI [6] was 16.5. The MFI [7] was 17.9 and the MFI [8] was 521.

“TIGIT-Fc (from UniProt Q495A1 22-141) (Fc fusion)” showed an MFI [9] of 795, an MFI [10] of 605 and an MFI [11] of 389. It also gave an MFI [12] of 530.
